In this data set the test system is Escherichia coli TOP10. In words: shrunken log2 fold change of peptide-encoding DNA abundance (4.5 h post-induction vs induction); higher = less antimicrobial activity (less host growth inhibition). The settings on record: time post-induction: 4.5 h; library: site-saturation at positions 5, 18, 19, 20.
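Note: peptides expressed intracellularly from a pBAD plasmid library in pooled LB shake-flask culture, induced with 0.3% L-arabinose, DNA abundance read by NGS, three biological replicates, DESeq2 with apeglm shrinkage.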

Take RRIRQRPPRLPRPRPRPALIPRP: the “shrunken log2 fold change” value is 0.144.

In the case of RRIRIRPPRLPRPRPRPKHNPRP, the “shrunken log2 fold change” value is -0.349.

For RRIRYRPPRLPRPRPRPFCIPRP, the “shrunken log2 fold change” value is -1.5.

Take RRIRRRPPRLPRPRPRPCDYPRP: the “shrunken log2 fold change” value is -0.489.

Regarding RRIRHRPPRLPRPRPRPRLNPRP, the “shrunken log2 fold change” value is -0.249.

In the case of RRIRKRPPRLPRPRPRPCPKPRP, the “shrunken log2 fold change” value is 0.29.

With RRIRRRPPRLPRPRPRPCIQPRP, the “shrunken log2 fold change” value was -0.271.

With RRIRGRPPRLPRPRPRPEWGPRP, the “shrunken log2 fold change” value was determined as 0.544.

RRIRVRPPRLPRPRPRPDCVPRP: the “shrunken log2 fold change” value amounted to 0.0012.

Take RRIRARPPRLPRPRPRPFDDPRP: the “shrunken log2 fold change” value was -0.0122.

For the sequence RRIRCRPPRLPRPRPRPQSIPRP, the “shrunken log2 fold change” value is -0.394.

With RRIRARPPRLPRPRPRPLGHPRP, the “shrunken log2 fold change” value was found to be 0.134.

As for RRIRLRPPRLPRPRPRPLGFPRP, the “shrunken log2 fold change” value turned out to be 0.38.

In the case of RRIRKRPPRLPRPRPRPALMPRP, the “shrunken log2 fold change” value was 0.32.

Turning to RRIRSRPPRLPRPRPRPWDFPRP, the “shrunken log2 fold change” value is -0.224.

Take RRIRFRPPRLPRPRPRPMMHPRP: the “shrunken log2 fold change” value was -0.181.

On to RRIRGRPPRLPRPRPRPYNVPRP, for which the “shrunken log2 fold change” value is -0.126.

With RRIRNRPPRLPRPRPRPALKPRP, the “shrunken log2 fold change” value was found to be 0.108.

In the case of RRIRQRPPRLPRPRPRPVDKPRP, the “shrunken log2 fold change” value is -0.0881.

With RRIRCRPPRLPRPRPRPPTCPRP, the “shrunken log2 fold change” value is 0.183.

Regarding RRIRSRPPRLPRPRPRPITCPRP, the “shrunken log2 fold change” value was -0.286.

As to RRIRVRPPRLPRPRPRPVDYPRP, the “shrunken log2 fold change” value is -0.034.

As for RRIRDRPPRLPRPRPRPEAIPRP, the “shrunken log2 fold change” value was determined as 0.0379.

For RRIRFRPPRLPRPRPRPDKNPRP, the “shrunken log2 fold change” value was -0.413.

For the sequence RRIRCRPPRLPRPRPRPLRFPRP, the “shrunken log2 fold change” value was 0.0668.

In the case of RRIRPRPPRLPRPRPRPTHTPRP, the “shrunken log2 fold change” value is 0.13.

In the case of RRIRMRPPRLPRPRPRPDRRPRP, the “shrunken log2 fold change” value is -0.0127.

Consider RRIRDRPPRLPRPRPRPVMPPRP, for which the “shrunken log2 fold change” value was -0.189.

Turning to RRIRMRPPRLPRPRPRPHLTPRP, the “shrunken log2 fold change” value is -0.0375.

With RRIRLRPPRLPRPRPRPVIPPRP, the “shrunken log2 fold change” value was -0.0331.

Regarding RRIRMRPPRLPRPRPRPPMEPRP, the “shrunken log2 fold change” value was 0.696.

Take RRIRKRPPRLPRPRPRPRNGPRP: the “shrunken log2 fold change” value turned out to be 0.157.

Turning to RRIRIRPPRLPRPRPRPPEFPRP, the “shrunken log2 fold change” value is -0.0754.

With RRIRVRPPRLPRPRPRPDCTPRP, the “shrunken log2 fold change” value is -0.068.

For the sequence RRIRKRPPRLPRPRPRPIRVPRP, the “shrunken log2 fold change” value is -0.0018.

As to RRIRRRPPRLPRPRPRPVENPRP, the “shrunken log2 fold change” value was 0.0788.

Turning to RRIRRRPPRLPRPRPRPLQGPRP, the “shrunken log2 fold change” value turned out to be 0.0475.

Regarding RRIRMRPPRLPRPRPRPMIAPRP, the “shrunken log2 fold change” value was found to be 0.0314.

Turning to RRIRHRPPRLPRPRPRPEKIPRP, the “shrunken log2 fold change” value came out at 0.0327.

As to RRIRNRPPRLPRPRPRPGHNPRP, the “shrunken log2 fold change” value was -0.64.

RRIRGRPPRLPRPRPRPCIAPRP: the “shrunken log2 fold change” value came out at 0.797.

Take RRIRWRPPRLPRPRPRPHFHPRP: the “shrunken log2 fold change” value was -0.596.

As to RRIRNRPPRLPRPRPRPGERPRP, the “shrunken log2 fold change” value was -0.0647.

RRIRTRPPRLPRPRPRPSEDPRP: the “shrunken log2 fold change” value is -0.494.

For RRIRMRPPRLPRPRPRPCWMPRP, the “shrunken log2 fold change” value amounted to 0.114.

Regarding RRIRSRPPRLPRPRPRPRTNPRP, the “shrunken log2 fold change” value worked out at 0.057.

RRIRDRPPRLPRPRPRPMIQPRP: the “shrunken log2 fold change” value was -0.103.

For RRIRQRPPRLPRPRPRPIILPRP, the “shrunken log2 fold change” value is -0.516.

Regarding RRIRFRPPRLPRPRPRPEFHPRP, the “shrunken log2 fold change” value was -0.342.

Consider RRIRVRPPRLPRPRPRPEYMPRP, for which the “shrunken log2 fold change” value is -0.305.

Regarding RRIRLRPPRLPRPRPRPMNAPRP, the “shrunken log2 fold change” value was -0.446.

Consider RRIRCRPPRLPRPRPRPQNMPRP, for which the “shrunken log2 fold change” value is -0.78.

Turning to RRIRCRPPRLPRPRPRPREAPRP, the “shrunken log2 fold change” value is 0.521.

In the case of RRIRCRPPRLPRPRPRPVMEPRP, the “shrunken log2 fold change” value was -0.0475.

RRIRHRPPRLPRPRPRPEQWPRP: the “shrunken log2 fold change” value was found to be 0.0101.

As for RRIRFRPPRLPRPRPRPYGGPRP, the “shrunken log2 fold change” value was -0.00865.

For RRIRTRPPRLPRPRPRPSEFPRP, the “shrunken log2 fold change” value is -0.369.

With RRIRFRPPRLPRPRPRPWFAPRP, the “shrunken log2 fold change” value is -0.582.

RRIRSRPPRLPRPRPRPFFEPRP: the “shrunken log2 fold change” value was -0.161.

As for RRIRVRPPRLPRPRPRPYVCPRP, the “shrunken log2 fold change” value was -0.525.

As for RRIRQRPPRLPRPRPRPPPYPRP, the “shrunken log2 fold change” value is -0.0506.

As to RRIRGRPPRLPRPRPRPLRNPRP, the “shrunken log2 fold change” value was found to be 1.03.

In the case of RRIRFRPPRLPRPRPRPNHYPRP, the “shrunken log2 fold change” value was -0.62.

In the case of RRIRARPPRLPRPRPRPGYIPRP, the “shrunken log2 fold change” value was -0.383.

Regarding RRIRRRPPRLPRPRPRPPQTPRP, the “shrunken log2 fold change” value came out at 0.828.

Consider RRIRERPPRLPRPRPRPLEMPRP, for which the “shrunken log2 fold change” value was -0.216.

Turning to RRIRDRPPRLPRPRPRPMHMPRP, the “shrunken log2 fold change” value is -0.0583.

In the case of RRIRERPPRLPRPRPRPWQQPRP, the “shrunken log2 fold change” value was determined as 0.015.

With RRIRWRPPRLPRPRPRPLKAPRP, the “shrunken log2 fold change” value worked out at 0.749.

For the sequence RRIRKRPPRLPRPRPRPRPVPRP, the “shrunken log2 fold change” value amounted to 0.732.

As for RRIRTRPPRLPRPRPRPHDNPRP, the “shrunken log2 fold change” value is -0.574.

For the sequence RRIRLRPPRLPRPRPRPFKEPRP, the “shrunken log2 fold change” value was -0.169.

RRIRQRPPRLPRPRPRPHKWPRP: the “shrunken log2 fold change” value was -0.2.

Regarding RRIRLRPPRLPRPRPRPDGIPRP, the “shrunken log2 fold change” value was -0.0391.

Regarding RRIRPRPPRLPRPRPRPHTWPRP, the “shrunken log2 fold change” value is -0.0512.

As for RRIRIRPPRLPRPRPRPWHHPRP, the “shrunken log2 fold change” value is -0.126.

With RRIRWRPPRLPRPRPRPRGSPRP, the “shrunken log2 fold change” value worked out at 0.495.

Turning to RRIRCRPPRLPRPRPRPHFGPRP, the “shrunken log2 fold change” value was -0.219.

RRIRKRPPRLPRPRPRPNPYPRP: the “shrunken log2 fold change” value was -0.384.

With RRIRFRPPRLPRPRPRPLSLPRP, the “shrunken log2 fold change” value was -0.0575.

For the sequence RRIRERPPRLPRPRPRPQWAPRP, the “shrunken log2 fold change” value was -0.0475.

On to RRIRKRPPRLPRPRPRPSYTPRP, for which the “shrunken log2 fold change” value was -0.0235.

On to RRIRIRPPRLPRPRPRPGTSPRP, for which the “shrunken log2 fold change” value was -0.0281.

Regarding RRIRKRPPRLPRPRPRPGNWPRP, the “shrunken log2 fold change” value amounted to 0.701.

As to RRIRARPPRLPRPRPRPFSNPRP, the “shrunken log2 fold change” value was -0.342.

As to RRIRERPPRLPRPRPRPSNMPRP, the “shrunken log2 fold change” value is -0.683.

For RRIRSRPPRLPRPRPRPTMDPRP, the “shrunken log2 fold change” value was -0.262.

RRIRHRPPRLPRPRPRPRKKPRP: the “shrunken log2 fold change” value is -0.0239.

For RRIRNRPPRLPRPRPRPARNPRP, the “shrunken log2 fold change” value was -0.0209.

As for RRIRNRPPRLPRPRPRPKQEPRP, the “shrunken log2 fold change” value came to 0.0268.

Regarding RRIRNRPPRLPRPRPRPAKNPRP, the “shrunken log2 fold change” value amounted to 0.0221.

In the case of RRIRRRPPRLPRPRPRPGIYPRP, the “shrunken log2 fold change” value came out at 0.0548.

Consider RRIRARPPRLPRPRPRPMPMPRP, for which the “shrunken log2 fold change” value stood at 0.695.

Turning to RRIRERPPRLPRPRPRPNCEPRP, the “shrunken log2 fold change” value is -0.155.

With RRIRPRPPRLPRPRPRPNLEPRP, the “shrunken log2 fold change” value is -0.0337.

Turning to RRIRIRPPRLPRPRPRPCWCPRP, the “shrunken log2 fold change” value is -0.063.

Consider RRIRPRPPRLPRPRPRPPNHPRP, for which the “shrunken log2 fold change” value came out at 0.0555.

On to RRIRPRPPRLPRPRPRPDENPRP, for which the “shrunken log2 fold change” value is -0.0444.

As for RRIRMRPPRLPRPRPRPQYTPRP, the “shrunken log2 fold change” value was -0.0579.

Regarding RRIRMRPPRLPRPRPRPNRYPRP, the “shrunken log2 fold change” value came out at 0.166.

In the case of RRIRFRPPRLPRPRPRPYFEPRP, the “shrunken log2 fold change” value was -0.617.

On to RRIRWRPPRLPRPRPRPDPPPRP, for which the “shrunken log2 fold change” value was found to be 0.575.

Consider RRIRIRPPRLPRPRPRPPHVPRP, for which the “shrunken log2 fold change” value was -0.265.

For the sequence RRIRNRPPRLPRPRPRPKHYPRP, the “shrunken log2 fold change” value was -0.399.

For RRIRRRPPRLPRPRPRPIKGPRP, the “shrunken log2 fold change” value is 0.174.

With RRIRMRPPRLPRPRPRPKRHPRP, the “shrunken log2 fold change” value was found to be 0.351.

For the sequence RRIRIRPPRLPRPRPRPAMPPRP, the “shrunken log2 fold change” value was 0.0692.

On to RRIRPRPPRLPRPRPRPFNAPRP, for which the “shrunken log2 fold change” value was -0.287.

Regarding RRIRWRPPRLPRPRPRPKMCPRP, the “shrunken log2 fold change” value was -0.0087.

RRIRLRPPRLPRPRPRPSWAPRP: the “shrunken log2 fold change” value is -0.098.

In the case of RRIRLRPPRLPRPRPRPNTFPRP, the “shrunken log2 fold change” value was -0.348.

In the case of RRIRKRPPRLPRPRPRPTWRPRP, the “shrunken log2 fold change” value came to 1.23.

RRIRGRPPRLPRPRPRPHYGPRP: the “shrunken log2 fold change” value was -0.627.

Regarding RRIRQRPPRLPRPRPRPPITPRP, the “shrunken log2 fold change” value was -0.0813.

As for RRIRHRPPRLPRPRPRPIFMPRP, the “shrunken log2 fold change” value is -0.0784.

RRIRGRPPRLPRPRPRPDFEPRP: the “shrunken log2 fold change” value stood at 0.988.

For the sequence RRIRSRPPRLPRPRPRPWPGPRP, the “shrunken log2 fold change” value is -0.139.

For the sequence RRIRNRPPRLPRPRPRPMVEPRP, the “shrunken log2 fold change” value was -0.481.

Turning to RRIRIRPPRLPRPRPRPMRDPRP, the “shrunken log2 fold change” value is 0.189.

Consider RRIRARPPRLPRPRPRPGQGPRP, for which the “shrunken log2 fold change” value came to 0.204.

RRIRPRPPRLPRPRPRPVAMPRP: the “shrunken log2 fold change” value amounted to 0.0478.

As for RRIRARPPRLPRPRPRPMNVPRP, the “shrunken log2 fold change” value is -0.163.

For the sequence RRIRWRPPRLPRPRPRPWRCPRP, the “shrunken log2 fold change” value amounted to 0.144.

As to RRIRARPPRLPRPRPRPNMKPRP, the “shrunken log2 fold change” value is -0.348.

In the case of RRIRSRPPRLPRPRPRPTGEPRP, the “shrunken log2 fold change” value amounted to 0.0361.

Values taken from the supplement of paper PMC9112550, “Optimization of the antimicrobial peptide Bac7 by deep mutational scanning” (BMC Biology, 2022).
